Results taken from PMC11251186, “Higher-order structure and proteoforms of co-occurring C4b-binding protein assemblies in human serum” (The EMBO Journal, 2024).
“And” between values parts separate entries of the source, which are not always exact repeats. Equal values may be shown once.

B1: C4b-binding protein alpha chain (C4BPα) (natural protein, human, UniProt P04003 49-597, looked up)
chain: NCGPPPTLSFAAPMDITLTETRFKTGTTLKYTCLPGYVRSHSTQTLTCNSDGEWVYNTFCIYKRCRHPGELRNGQVEIKTDLSFGSQIEFSCSEGFFLIGSTTSRCEVQDRGVGWSHPLPQCEIVKCKPPPDIRNGRHSGEENFYAYGFSVTYSCDPRFSLLGHASISCTVENETIGVWRPSPPTCEKITCRKPDVSHGEMVSGFGPIYNYKDTIVFKCQKGFVLRGSSVIHCDADSKWNPSPPACEPNSCINLPDIPHASWETYPRPTKEDVYVVGTVLRYRCHPGYKPTTDEPTTVICQKNLRWTPYQGCEALCCPEPKLNNGEITQHRKSRPANHCVYFYGDEISFSCHETSRFSAICQGDGTWSPRTPSCGDICNFPPKIAHGHYKQSSSYSFFKEEIIYECDKGYILVGQAKLSCSYSHWSAPAPQCKALCRKPELVNGRLSVDKDQYVEPENVTIQCDSGYGVVGPQSITCSGNRTWYPEVPKCEWETPEGCEQVLTGKRLMQCLPNPEDVKMALEVYKLSLEIEQLELQRDSARQSTLDKEL
modifications: N-glycans at N221, N506, N528
notes: eight CCP domains and the C-terminal oligomerization core; without the signal peptide; Disulfide-linked to the other C4BPα chains and to C4BPβ in the assembly; also called α chain; source: endogenous, pooled healthy donor serum (SEC LC-MS)
B3: C4b-binding protein beta chain (C4BPβ) (natural protein, human, UniProt P20851 18-252, looked up)
chain: SDAEHCPELPPVDNSIFVAKEVEGQILGTYVCIKGYHLVGKKTLFCNASKEWDNTTTECRLGHCPDPVLVNGEFSSSGPVNVSDKITFMCNDHYILKGSNRSQCLEDHTWAPPFPICKSRDCDPPGNPVHGYFEGNNFTLGSTISYYCEDRYYLVGVQEQQCVDGEWSSALPVCKLIQEAPKPECEKALLAFQESKNLCEAMENFMQQLKESGMTMEELKYSLELKKAELKAKLL
modifications: N-glycans at N64, N71, N98, N117, N154
notes: three CCP domains; N-terminus S18 after the propeptide cleavage; Disulfide-linked to C4BPα in the assembly; also called β chain; source: endogenous, pooled healthy donor serum (SEC LC-MS)

Experiments:
[1] = target: B3; test: native MS; Orbitrap charge detection MS (CDMS) of native C4BP, 1 M ammonium acetate pH 7.4, ~1 μM; conditions: both partners purified
[2] = target: the molecule itself; test: cross-linking; C4BP 0.5 g/l in PBS pH 7.4, 1 mM DSS or 5 mM DMTMM, 30 min, room temperature; SDS-PAGE bands digested with trypsin, LC-MS/MS; cross-links kept if found in two of three replicates
[3] = target: T1, C4b-binding protein beta chain (C4BPβ) (Homo sapiens (Human), UniProt P20851, N-glycans at N64, N71, N98, N117, N154); test: native CDMS, mass photometry, XL-MS and HS-AFM of co-purified serum C4BP complex; C4BPβ present only disulfide-linked to C4BPα in the serum C4BP assembly (α7β1/α6β1), co-purified with ProS; the non-covalent complex dissociates at pH 2 or in urea
T1 chain: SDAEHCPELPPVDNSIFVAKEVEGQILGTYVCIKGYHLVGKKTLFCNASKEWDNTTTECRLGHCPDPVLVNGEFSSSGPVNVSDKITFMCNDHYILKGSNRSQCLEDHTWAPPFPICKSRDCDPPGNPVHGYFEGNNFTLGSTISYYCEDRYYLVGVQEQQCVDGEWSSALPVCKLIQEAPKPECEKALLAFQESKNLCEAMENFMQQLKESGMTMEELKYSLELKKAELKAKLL

[4] = target: B1; test: cross-linking; C4BP 0.5 g/l in PBS pH 7.4, 1 mM DSS or 5 mM DMTMM, 30 min, room temperature; SDS-PAGE bands digested with trypsin, LC-MS/MS; cross-links kept if found in two of three replicates; conditions: both partners purified
[5] = target: T2, vitamin K-dependent protein S (ProS) (human, UniProt P07225 42-676, N-glycans at N499, N509, N530); test: as above; conditions: both partners purified
T2 construct: vitamin K-dependent protein S (ProS), human serum protein; GLA domain, four EGF-like domains (E1-E4), two laminin G-like domains (LG1-2); without signal peptide and propeptide; source: purified from pooled plasma of more than 16 healthy donors together with C4BP (bought: Complement Technology, Inc); endogenous, pooled healthy donor serum (SEC LC-MS)
T2 sequence (looked up): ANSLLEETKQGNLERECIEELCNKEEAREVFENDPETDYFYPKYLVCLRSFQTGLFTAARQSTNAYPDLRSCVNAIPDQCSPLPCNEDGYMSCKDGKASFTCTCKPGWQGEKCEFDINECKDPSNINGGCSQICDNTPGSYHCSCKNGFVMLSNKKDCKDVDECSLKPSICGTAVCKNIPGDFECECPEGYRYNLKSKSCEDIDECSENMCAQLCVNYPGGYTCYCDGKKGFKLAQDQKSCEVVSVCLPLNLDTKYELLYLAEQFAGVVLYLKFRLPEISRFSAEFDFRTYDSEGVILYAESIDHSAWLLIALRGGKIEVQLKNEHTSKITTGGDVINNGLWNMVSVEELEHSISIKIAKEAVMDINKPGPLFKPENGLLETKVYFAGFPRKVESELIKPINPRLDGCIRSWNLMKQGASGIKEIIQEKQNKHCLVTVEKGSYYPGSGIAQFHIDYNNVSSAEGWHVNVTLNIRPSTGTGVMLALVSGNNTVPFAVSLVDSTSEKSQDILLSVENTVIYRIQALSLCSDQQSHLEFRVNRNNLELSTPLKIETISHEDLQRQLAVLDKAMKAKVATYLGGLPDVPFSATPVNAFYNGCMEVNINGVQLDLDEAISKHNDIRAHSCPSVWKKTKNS

B1 was tested, and the “stoichiometry N” value [1] was 7 C4BPα chains per C4BPβ chain and 6 C4BPα chains per C4BPβ chain and the binding result [2] was “binds”.

B2: vitamin K-dependent protein S (ProS) (protein)
chain: ANSLLEETKQGNLERECIEELCNKEEAREVFENDPETDYFYPKYLVCLRSFQTGLFTAARQSTNAYPDLRSCVNAIPDQCSPLPCNEDGYMSCKDGKASFTCTCKPGWQGEKCEFDINECKDPSNINGGCSQICDNTPGSYHCSCKNGFVMLSNKKDCKDVDECSLKPSICGTAVCKNIPGDFECECPEGYRYNLKSKSCEDIDECSENMCAQLCVNYPGGYTCYCDGKKGFKLAQDQKSCEVVSVCLPLNLDTKYELLYLAEQFAGVVLYLKFRLPEISRFSAEFDFRTYDSEGVILYAESIDHSAWLLIALRGGKIEVQLKNEHTSKITTGGDVINNGLWNMVSVEELEHSISIKIAKEAVMDINKPGPLFKPENGLLETKVYFAGFPRKVESELIKPINPRLDGCIRSWNLMKQGASGIKEIIQEKQNKHCLVTVEKGSYYPGSGIAQFHIDYNNVSSAEGWHVNVTLNIRPSTGTGVMLALVSGNNTVPFAVSLVDSTSEKSQDILLSVENTVIYRIQALSLCSDQQSHLEFRVNRNNLELSTPLKIETISHEDLQRQLAVLDKAMKAKVATYLGGLPDVPFSATPVNAFYNGCMEVNINGVQLDLDEAISKHNDIRAHSCPSVWKKTKNS
modifications: N-glycans at N499, N509, N530
B2: binds [3].

B3: binds [4]; binds [5].
